Assay results: PMC10392983 (2023)

Columns and labels:
p110γ-p101 complex = p110γ-p101 complex (human | Sus scrofa (porcine), UniProt P48736 1-1102; O02696 1-877); test: BLI
p110γ-p84 complex = p110γ-p84 complex (human | mouse, UniProt P48736 1-1102; Q3U6Q4 1-756); test: BLI
Sequence of p110γ-p84 complex (P48736 whole entry, chain 1 of 2): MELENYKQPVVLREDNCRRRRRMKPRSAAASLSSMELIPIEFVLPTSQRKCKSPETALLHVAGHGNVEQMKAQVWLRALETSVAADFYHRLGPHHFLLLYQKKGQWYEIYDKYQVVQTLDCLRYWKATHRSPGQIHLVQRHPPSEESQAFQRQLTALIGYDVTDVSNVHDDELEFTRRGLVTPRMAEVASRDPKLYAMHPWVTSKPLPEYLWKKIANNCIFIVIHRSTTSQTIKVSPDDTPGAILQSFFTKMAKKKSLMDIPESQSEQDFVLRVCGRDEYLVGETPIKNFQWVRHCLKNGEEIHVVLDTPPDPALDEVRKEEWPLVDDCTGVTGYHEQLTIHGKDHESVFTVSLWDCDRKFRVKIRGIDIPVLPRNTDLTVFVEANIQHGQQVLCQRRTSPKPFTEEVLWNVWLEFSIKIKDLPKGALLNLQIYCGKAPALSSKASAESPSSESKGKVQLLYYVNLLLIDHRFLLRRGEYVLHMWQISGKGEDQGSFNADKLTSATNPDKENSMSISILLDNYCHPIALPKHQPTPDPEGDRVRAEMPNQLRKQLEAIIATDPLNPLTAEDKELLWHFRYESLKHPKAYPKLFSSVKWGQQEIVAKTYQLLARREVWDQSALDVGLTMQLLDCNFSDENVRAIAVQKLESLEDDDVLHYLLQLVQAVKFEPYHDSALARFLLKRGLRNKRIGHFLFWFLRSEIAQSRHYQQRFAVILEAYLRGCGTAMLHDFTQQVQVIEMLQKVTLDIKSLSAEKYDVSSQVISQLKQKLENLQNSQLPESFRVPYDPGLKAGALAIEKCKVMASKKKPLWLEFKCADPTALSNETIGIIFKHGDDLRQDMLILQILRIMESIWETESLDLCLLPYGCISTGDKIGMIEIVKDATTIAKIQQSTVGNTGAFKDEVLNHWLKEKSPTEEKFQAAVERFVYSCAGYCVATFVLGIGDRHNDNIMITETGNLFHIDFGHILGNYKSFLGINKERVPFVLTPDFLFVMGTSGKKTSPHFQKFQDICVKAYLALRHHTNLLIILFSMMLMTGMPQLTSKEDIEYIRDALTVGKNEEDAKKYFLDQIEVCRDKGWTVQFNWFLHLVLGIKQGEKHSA
Sequence of p110γ-p84 complex (Q3U6Q4 whole entry, chain 2 of 2): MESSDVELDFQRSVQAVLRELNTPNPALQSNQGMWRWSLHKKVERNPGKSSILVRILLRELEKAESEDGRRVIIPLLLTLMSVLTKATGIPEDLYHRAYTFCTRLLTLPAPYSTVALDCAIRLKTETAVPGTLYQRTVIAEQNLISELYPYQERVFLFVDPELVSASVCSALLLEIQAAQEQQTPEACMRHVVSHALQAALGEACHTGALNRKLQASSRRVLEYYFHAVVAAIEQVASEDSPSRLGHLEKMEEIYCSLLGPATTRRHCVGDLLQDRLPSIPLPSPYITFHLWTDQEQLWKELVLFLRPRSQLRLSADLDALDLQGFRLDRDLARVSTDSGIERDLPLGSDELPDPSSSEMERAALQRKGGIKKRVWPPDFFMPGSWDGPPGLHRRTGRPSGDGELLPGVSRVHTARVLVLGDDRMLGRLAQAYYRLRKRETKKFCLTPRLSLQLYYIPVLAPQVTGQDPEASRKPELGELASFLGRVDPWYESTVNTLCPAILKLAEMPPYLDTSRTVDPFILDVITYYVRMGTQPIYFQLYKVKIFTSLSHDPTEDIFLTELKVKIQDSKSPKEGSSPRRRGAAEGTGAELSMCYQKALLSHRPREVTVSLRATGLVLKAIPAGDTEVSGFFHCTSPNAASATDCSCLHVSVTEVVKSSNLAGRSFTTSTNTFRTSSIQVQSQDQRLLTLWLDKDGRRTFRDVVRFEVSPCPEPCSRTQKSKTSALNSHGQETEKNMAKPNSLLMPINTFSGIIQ

Sequence of p110γ-p101 complex (P48736 whole entry, chain 1 of 2): as the sequence (P48736 whole entry, chain 1 of 2) above
Sequence of p110γ-p101 complex (O02696 whole entry, chain 2 of 2): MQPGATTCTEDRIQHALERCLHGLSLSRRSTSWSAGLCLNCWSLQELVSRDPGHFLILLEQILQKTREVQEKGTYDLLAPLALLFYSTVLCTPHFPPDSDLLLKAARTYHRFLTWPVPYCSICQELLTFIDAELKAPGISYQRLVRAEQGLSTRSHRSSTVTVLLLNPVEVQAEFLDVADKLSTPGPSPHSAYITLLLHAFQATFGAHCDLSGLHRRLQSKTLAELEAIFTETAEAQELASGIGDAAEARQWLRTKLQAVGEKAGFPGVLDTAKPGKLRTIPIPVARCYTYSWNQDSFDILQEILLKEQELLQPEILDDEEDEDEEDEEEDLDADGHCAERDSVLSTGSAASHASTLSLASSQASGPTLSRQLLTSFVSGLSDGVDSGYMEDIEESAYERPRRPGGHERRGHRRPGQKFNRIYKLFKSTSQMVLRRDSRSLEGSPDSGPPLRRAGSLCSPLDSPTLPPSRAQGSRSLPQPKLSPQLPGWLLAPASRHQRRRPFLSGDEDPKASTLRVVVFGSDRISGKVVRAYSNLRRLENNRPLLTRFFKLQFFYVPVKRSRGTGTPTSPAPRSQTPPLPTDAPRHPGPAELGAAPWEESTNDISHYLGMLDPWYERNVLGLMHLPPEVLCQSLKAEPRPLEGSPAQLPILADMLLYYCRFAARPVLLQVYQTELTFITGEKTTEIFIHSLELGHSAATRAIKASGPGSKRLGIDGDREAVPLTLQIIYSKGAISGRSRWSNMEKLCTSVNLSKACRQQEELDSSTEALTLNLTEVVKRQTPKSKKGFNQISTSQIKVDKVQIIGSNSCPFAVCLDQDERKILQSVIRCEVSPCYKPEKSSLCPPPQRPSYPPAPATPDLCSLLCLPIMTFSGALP

Kd (p110γ-p101 complex): 3.1 nM | Kd (p110γ-p84 complex): 3 nM
B1: Nanobody NB7-PIK3CG (VHH)
VHH: QVQLVESGGGLVQPGGSLRLSCAASGSIFSINAMGWYRQAPGKQRELVAHITSGGSTNYADSVKGRFTISRDNAKNTVYLQMNSLKPEDTAVYYCNEAGDPFLGSTWNGPPAFGSWGQGTQVTVSS
